The format of this data set is physicochemical. As to conditions: cysteine/cystine redox condition, 20% EtOH / 0.1 M aq. NH4OAc, pH 8.5, 37 °C; misfolded products predominantly converted to 2. The text has this: We first examined the preparation of hSYN from the linear precursor peptide 1 (Scheme 1a). Oxidation of 1 in air or with DMSO gave only misfolded analogues with two (2SS) and/or three (3SS) disulfide bonds (Figure S1a,b). Meanwhile, a redox condition using cysteine / cystine in EtOH / aq. NH4OAc^[ [51] ^] smoothly promoted the formation of three disulfide bonds to afford hSYN (2) in 65% yield almost as a single isomer, along with trace amounts of misfolded 3SS analogue. […]
SH 前述の 22 の混合物に、前述のバッファーSHB (290 µL; 第四章第一節第四項) に溶解したSH 21SH
N-terminal segment(7.2 mg, 2.1 µmol) と TCEP-HCl (0.32 mg, 1.1 µmol) C-terminal segmentを加えた。6 M 水酸化ナトリウム水溶液1 で反応溶液を pH 7.0 に調整した後、室温で 22 時間攪拌した。得られた混合物を ODS カ
ラムクロマトグラフィー [COSMOSIL 75 C18 OPN (φ 8 x 8 mm), MeCN / H2O (0.1% TFA) = 0:1 Linear peptide 1. […]
rate 1.0 mL/min, UV 215 nm (A; 0.1% aq. TFA, B; 0.08% TFA/MeCN) ]. MS (MALDI-TO F ) m/z 3001.0 (calculated for […]
2: tR 12.2 min [Develosil® ODS HG-5 (5 µm, f 4.6 mm × 250 mm), temp. […] 40 °C, 25% for 10 min and 25–45% linear gradient for 20 min, flow rate […], UV215 nm (A; 0.1% aq. TFA, B; 0.08% TFA/MeCN), see Figure S7]; MS (MALDI-TO F ) m/z 2998.0 (calculated […]

Where no end group is shown, it is not given here.

As for “human synenkephalin [1–53] (ECSQDCATCSYRLVRPADINFLACVMECEGKLPSLKIWETCKELLQLSKPELP; disulfide (positions not given here); also: Type II disulfides, places not given here; UniProt P01210 25-77, looked up, fragment) [compound 2, human synenkephalin N-terminal part [1–53], three disulfide bonds Cys(I)–Cys(V), Cys(II)–Cys(IV), Cys(III)–Cys(VI)]”, the thermodynamic stability entry was “most thermodynamically stable”.

For the origin of these results see article PMC12207360, “Hyperpolarization Modulation of the T‐Type hCav3.2 Channel by Human Synenkephalin [1–53], a Shrew Neurotoxin Analogue without Paralytic Effects” (Angewandte Chemie (International Ed. in English), 2025).
